Consider 1 substance from patent US20060234940A1.

One may read the Ki as a dissociation constant, usually derived from enzyme kinetics or from competition with a known ligand.

This assay concerns the target recombinant human DP IV, wild type (human) (UniProt P27487). As to the kind of experiment: photometric assay, competition with the standard substrate GP-4NA.

Chain of recombinant human DP IV, wild type (human) (P27487 other isoform, or with tags, fused parts or gaps): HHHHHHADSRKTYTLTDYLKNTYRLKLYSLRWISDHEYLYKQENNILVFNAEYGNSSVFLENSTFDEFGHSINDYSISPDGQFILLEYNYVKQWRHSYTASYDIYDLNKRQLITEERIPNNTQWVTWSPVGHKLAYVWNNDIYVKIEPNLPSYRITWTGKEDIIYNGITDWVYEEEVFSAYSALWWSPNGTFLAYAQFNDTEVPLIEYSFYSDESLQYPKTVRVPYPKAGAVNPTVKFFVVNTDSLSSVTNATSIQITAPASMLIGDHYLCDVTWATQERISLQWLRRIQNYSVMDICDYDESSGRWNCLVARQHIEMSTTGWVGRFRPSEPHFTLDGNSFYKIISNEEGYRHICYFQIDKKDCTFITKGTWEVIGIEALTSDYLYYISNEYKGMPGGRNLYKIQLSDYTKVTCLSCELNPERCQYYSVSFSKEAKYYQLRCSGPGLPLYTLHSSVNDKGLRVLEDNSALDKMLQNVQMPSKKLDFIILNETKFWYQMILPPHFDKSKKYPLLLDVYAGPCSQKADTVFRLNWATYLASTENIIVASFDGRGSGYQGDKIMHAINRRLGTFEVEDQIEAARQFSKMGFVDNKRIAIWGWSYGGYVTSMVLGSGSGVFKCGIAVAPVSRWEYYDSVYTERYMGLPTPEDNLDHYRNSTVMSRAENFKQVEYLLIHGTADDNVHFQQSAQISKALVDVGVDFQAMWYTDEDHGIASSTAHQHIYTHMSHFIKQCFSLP

Consider “PACAP-27 (from UniProt P18509 132-158) (peptide)”, for which the Ki was found to be 113 µM.
